Reference: patent US20230121197A1, “ANTIBODIES SPECIFICALLY BINDING THE CARBOXYMETHYLATED CATALYTIC SUBUNIT OF PROTEIN PHOSPHATASE 2A” (Medizinische Universität Wien, priority 2020, published 2023)

Assays:
PP2Ac = molecular target: T1, PP2Ac (Homo sapiens, UniProt P67775); experiment: Western blot of human cell lysates (HAP1, HEK293; NaOH treatment, Lcmt-1-KO); type: binding
T1 construct: the carboxy-terminal methyl group was chemically removed from cellular PP2Ac; endogenous in cells; host or cells: HAP1 wild type, HAP1 Lcmt-1-KO, HEK293Trex / HEK293T
T1 sequence (P67775 whole entry): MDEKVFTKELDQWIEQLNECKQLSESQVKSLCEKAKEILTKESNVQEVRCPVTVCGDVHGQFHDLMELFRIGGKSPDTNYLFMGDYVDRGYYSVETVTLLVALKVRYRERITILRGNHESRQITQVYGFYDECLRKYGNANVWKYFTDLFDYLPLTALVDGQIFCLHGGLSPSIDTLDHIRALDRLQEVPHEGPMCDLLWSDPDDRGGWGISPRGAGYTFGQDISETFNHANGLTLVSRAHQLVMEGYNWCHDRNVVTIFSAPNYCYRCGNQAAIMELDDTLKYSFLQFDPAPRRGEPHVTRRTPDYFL
Method: NIH3T3 mouse fibroblasts and human embryonic kidney cells (HEK293Trex) were grown in DMEM+10% FCS+2 mM L-glutamine (Sigma, G2150)+100 units/ml Penicillin/0.1 mg/ml Streptomycin at 37° C. in a 7.5% CO2 atmosphere. HAP1 wild type and HAP1 Lcmt-1-KO cells (Leucine carboxyl methyltransferase 1 deleted by CRISPR/Cas9; Horizon Discovery, #C631 and #HZGHC004373c001) were grown in Iscove's Modified Dulbecco's Medium (IMDM, Thermo Fischer Scientific, Life Technologies #12440053) supplemented with 10% (v/v) Fetal Calf Serum (FCS) (Sigma #F7524, lot 104M3333), GlutaMAX™ (Thermo Fischer Scientific, Life Technologies #35050-38, lot 1895829), and Penicillin-Streptomycin solution (Sigma, #P4333, lot 125M4781V) in a 5% CO2 atmosphere. Of note, HAP1 is a near-haploid human cell line that was derived from the chronic myelogenous leukemia (CML) cell line KBM-7 (Carette (2011), Nature 477(7364):340-3). For cell lysis, exponentially growing cells were washed once with ice-cold PBS, once with ice-cold IP-Wash buffer (20 mmol/l Tris pH 8.0, 135 mmol/l NaCl, 10% glycerol) and lysed on the petri-dish in ice-cold IP-Lyse buffer (18 mmol/l Tris pH 8.0, 122 mmol/l NaCl, 9% glycerol, 1% w/v NP-40) for 20 min at 4° C. rocking. Lysed cells were transferred to Eppendorf 1.5 ml tubes and centrifuged for 15 min at 14,000 rpm at 4° C. in a Beckman & Coulter Microfuge 18 centrifuge. The protein concentration was determined with the Protein Assay Dye Reagent (Biorad, 500-0006) and measurement of absorbance at 595 nm in a Hitachi U-2000 spectrophotometer. […]
To test these antibodies in the western blot analysis with methylated and non-methylated full-length PP2Ac the methyl group was chemically removed from cellular PP2Ac by treating lysates of the human cell line, HAP1, with NaOH, as described in Example 2. […] In agreement with the results of the NaOH experiments, […] of PP2Ac were detected in HAP1 cells that lack the PP2A methyltransferase LCMT-1 indicating the preference of these antibodies for non-methylated PP2Ac (FIG. 22). […]

PP6 = experiment: Summary of cross-reactivities of C-terminal PP2Ac antibodies (Table 4), PP6; settings: antibodies screened for binding methylated PP2Ac
Excerpt: Examples of antibodies with a preference for non-methylated PP2Ac are mouse monoclonal antibody 4B7 (Yu (2001), Mol Biol Cell 12, 185-199), mouse monoclonal antibody 1D7 generated by the Ogris lab but also the rabbit monoclonal E155 antibody from Abeam and the mouse monoclonal F-8 from SCBT that were thought to be specific for pTyr^307.

B1: 7C10-C5: α-carboxymethylation specific mouse monoclonal IgG1 antibody from single clone hybridoma 7C10-C5 (DSM ACC3350) (antibody)
heavy: MYRMQLLSCIALSLALVTNSDVQLQESGPGLVKPSQSLSLTCSVTGYSITSGYYWNWIRQFPGNKLEWMGYISYDGSNNYNPSLKNRISITRDTSKNQFFLKLNSVTTEDTATYYCAGRFAYWGQGTLVTVSAAKTTAPSVYPLAPVCGDTTGSSVTLGCLVKGYFPEPVTLTWNSGSLSSGVHTFPAVLQSDLYTLSSSVTVTSSTWPSQSITCNVAHPASSTKVDKKIEPRGPTIKPCPPCKCPAPNLLGGPSVFIFPPKIKDVLMISLSPIVTCVVVDVSEDDPDVQISWFVNNVEVHTAQTQTHREDYNSTLRVVSALPIQHQDWMSGKEFKCKVNNKDLPAPIERTISKPKGSVRAPQVYVLPPPEEEMTKKQVTLTCMVTDFMPEDIYVEWTNNGKTELNYKNTEPVLDSDGSYFMYSKLRVEKKNWVERNSYSCSVVHEGLHNHHTTKSFSRTPGK
light: MDMRVPAQLLGLLLLWLSGARCDVLMTQTPLSLPVSLGDQASISCRSSQSIVHSNGNTYLEWYLQKPGQSPKLLIYKVSNRFSGVPDRFSGSGSGTDFTLKINRVEAEDLGVYYCFQGSHVPWTFGGGTKLEIKADAAPTVSIFPPSSEQLTSGGASVVCFLNNFYPKDINVKWKIDGSERQNGVLNSWTDQDSKDSTYSMSSTLTLTKDEYERHNSYTCEATHKTSTSPIVKSFNRNEC
modifications: Amino acid sequence of the recombinant 7C10-C5 heavy chain; Amino acid sequence of the recombinant 7C10-C5 light chain
- detection of PP2Ac in HAP1 cells that lack LCMT-1 (Lcmt-1-KO) (PP2Ac): no carboxymethylated PP2Ac specific signals were detected
- detection of PP2Ac in untreated versus NaOH treated cell lysates (PP2Ac; HAP1, HEK293): only detected methylated PP2Ac in the untreated cell lysates but not in the NaOH treated lysates
- PP6 meLeu^305 (PP6): — (— <15%)
